Experimental data as given in article PMC10281268.

Molecular target: GFP-tagged Y822F vinculin (chicken), expressed in 4T1 vinculin-knockout cells (chicken) (UniProt P12003)
Test: co-IP; GFP or GFP-tagged vinculins immunoprecipitated with GFP antibody and protein A/G agarose from lysates of 4T1 vinculin-knockout cells (EB or RIPA buffer), reducing SDS-PAGE, immunoblot for talin, paxillin or β-actin; in one panel cells pre-treated with 10 mM NAC for 1 h (paxillin with Y822C reduced, not significantly changed with wild type and Y822F)

Chain of UniProt P12003 (P12003 whole entry Y822F): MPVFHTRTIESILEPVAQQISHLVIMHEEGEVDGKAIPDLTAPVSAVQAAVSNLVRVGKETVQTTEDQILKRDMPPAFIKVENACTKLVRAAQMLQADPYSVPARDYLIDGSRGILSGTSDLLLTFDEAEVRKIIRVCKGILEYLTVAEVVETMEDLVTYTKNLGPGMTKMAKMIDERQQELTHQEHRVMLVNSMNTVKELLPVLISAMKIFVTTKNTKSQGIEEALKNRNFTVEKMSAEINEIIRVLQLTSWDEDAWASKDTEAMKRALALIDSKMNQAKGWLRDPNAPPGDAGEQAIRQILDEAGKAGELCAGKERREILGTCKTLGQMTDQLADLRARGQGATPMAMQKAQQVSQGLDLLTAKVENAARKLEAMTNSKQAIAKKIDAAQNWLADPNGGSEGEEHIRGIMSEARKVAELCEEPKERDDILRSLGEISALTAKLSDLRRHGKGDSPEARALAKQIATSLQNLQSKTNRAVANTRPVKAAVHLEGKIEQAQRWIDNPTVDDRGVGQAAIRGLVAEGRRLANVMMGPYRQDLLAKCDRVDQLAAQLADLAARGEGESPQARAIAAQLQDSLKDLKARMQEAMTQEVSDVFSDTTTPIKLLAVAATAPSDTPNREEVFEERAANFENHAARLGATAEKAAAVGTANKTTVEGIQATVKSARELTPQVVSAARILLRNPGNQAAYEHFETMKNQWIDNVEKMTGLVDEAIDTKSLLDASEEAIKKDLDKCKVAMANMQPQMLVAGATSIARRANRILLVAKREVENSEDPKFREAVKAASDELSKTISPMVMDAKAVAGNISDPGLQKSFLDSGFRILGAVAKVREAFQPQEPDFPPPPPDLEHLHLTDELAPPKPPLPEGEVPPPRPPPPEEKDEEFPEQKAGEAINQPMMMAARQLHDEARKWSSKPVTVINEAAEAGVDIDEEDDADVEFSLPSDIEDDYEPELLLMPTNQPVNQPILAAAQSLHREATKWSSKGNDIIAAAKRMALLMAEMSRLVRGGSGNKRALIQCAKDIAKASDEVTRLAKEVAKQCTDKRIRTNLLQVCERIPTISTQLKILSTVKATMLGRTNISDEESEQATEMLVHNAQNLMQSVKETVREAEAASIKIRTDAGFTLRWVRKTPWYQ

- fold less talin recovered than with T12 vinculin: 390 fold
Substance: talin (endogenous in 4T1 cells; the paper's 'talin' refers collectively to talin 1 and 2) (from UniProt P26039 1-2541) (natural protein)
